Experimental data taken from patent US20170304442A1 (SORRENTO THERAPEUTICS, published 2017).
Changes are numbered by the printed parent chain.

B1: WIr1G5 (antibody, V domains shown)
VH: QVQLVESGGGLIQPGGSLRLSCAASGFTVSSNYMSWVRQAPGKGLEWVSVIYSGGSTYYADSVKGRFTISRDNSKNTLYLQMNSLRAEDTAVYYCARFSGWNAFDIWGQGTMVTVSS
VL: DIVMTQTPSTLSASVGDRVTITCRASQSISSWLAWYQQKPGKAPKLLIYKASSLESGVPSRFSGSGSGTDFTLTISSLRPEDFATYYCQHSSTFGQGTRLEIK
notes: Fully human IgG; also called Wlr1G5
B2: WI2D9 (antibody, V domains shown)
VH: EVQLVQSGAEVKRSGASVKVSCKLSGDTLTDLSIHWVRQAPGKGLEWMGGFDFEDGEIVYGDKFKGRVTVTEDPSTDTAYMDLKRLTFEDTAIYYCATIKDIPGRYYFDFWGQGTLVTVSS
VL: QSVVTQPPSVSGAPGQRVTISCTGSSSNIGAGYDVHWYQQLPGTAPKLLIYGNSNRPSGVPDRFSGSKSGTSASLAITGLQAEDEADYYCQSYDSSLSGSNWVFGGGTKLTVL
notes: Fully human IgG; also called Wl2D9
B3: WIr2A7 (antibody, V domains shown)
VH: QVQLVQSGAEVKKPGASVKVSCKVSGYTLTELSIYWVRQAPGKGLEWVGGFDPEDGETVYAQNFQGRVTMTEDTSTDTAYMELSSLRSEDTAVYYCATHTSYDKVWGRYRPSLAFDIWGQGTMVTVSS
VL: DIVMTQTPSSLSASVGDRVTITCQASQDISKYLNWYQQKPGKAPNLLIYDASNLETGVPSRFSGSGSGTDFTLTISSLQPEDIGTYYCQQDDNLPLTFGGGTKVEIK
notes: Fully human IgG; also called Wlr2A7
B4: WIr2B5 (antibody, V domains shown)
VH: EVQLVESGAEVKKPGASVKVSCKASGYTFTSYGISWVRQAPGQGLEWMGWISAYNGNTNYAQKLQGRVTMTTDTSTSTAYMELRSLRSDDTAVYYCARDWDSTSWENYYYGMDVWGQGTTVTVSS
VL: B3 VL with K31N, N45K, L73F, G84A, D91H, V104L
notes: Fully human IgG; also called Wlr2B5
B5: WI1E6 (antibody, V domains shown)
VH: EVQLLESGGGVVQPGRSLRLSCAASGFTFSSYGMHWVRQAPGKGLEWVAVIWYDGSNKYYADSVKGRFTISRDNSKNTLYLQMNSLRAEDTAVYYCARGSAFNIWGQGTMVTVSS
VL: QAVVTQPASVSGSPGQSITISCIGTSSDVGGYNYVSWYQQHPGKAPKLMIYDVSNRPSGVSNRFSGSKSGNTASLTISGLQAEDEADYYCSSYTTSNTFVFGTGTKVTVL
notes: Fully human IgG; also called Wl1E6
B6: WI1A6 (antibody, V domains shown)
VH: B5 VH
VL: LPVLTQPASVSGSPGQSITITCTGTSSDVGAYNYVSWYQQRPGKAPKLMIYDVSKRPSGVSNRFSGSKSGNTASLTISGLQAEDEADYYCSSYTSSSTYVVFGGGTKLTVL
notes: Fully human IgG; also called Wl1A6
B7: WIr2A2 (antibody, V domains shown)
VH: EVQLVQSGAEVKKPGASVKVSCKVSGYTLTELSMHWVRQAPGKGLEWMGGFDPEDGETIYAQKFQGRVTMTEDTSTDTAYMELSSLRSEDTAVYYCATFMFDHDWFQLDPWGQGTLVTVSS
VL: QSALTQPPSASGTPGQRVTIACSGSSSNIGTNTVNWYQQLPGTAPKLLIYNNNQRPSGVPDRFSGSKSGTSASLAITGLQAEDEADYYCQSYDRSLSGYVFGSGTKLTVL
notes: Fully human IgG; also called Wlr2A2
B8: WIrF8 (antibody, V domains shown)
VH: EVQLLESGAEVKKPGASVKVSCRVPGYSLSELSMHWVRQAPGKGLEWMGGFDPEDGETIYAQKFQGRVTMTEDTSTDTAYMELSSLRSEDTAVYYCAASGGWEVHDAFDTWGQGTMVTVSS
VL: DIVMTQSPSSLSASVGDRVTITCRASQDISYYLAWYQQKPGKAPELLIYAGSSLQSGVPSRFSGSESGTDFTLTISSLQPEDVASYYCQQYKTAPYTFGQGTKLEIK
notes: Fully human IgG; also called WlrF8
B9: WIr1B6 (antibody, V domains shown)
VH: QVQLVESGGGLVQPGGSLRLSCAASGFTFDDYAMHWVRQAPGKGLEWVSGISWNSGSIGYADSVKGRFTISRDNAKNSLYLQMNSLRAEDTALYYCAKVRAAAGTGGDYFDYWGQGTLVTVSS
VL: LPVLTQPRSVSGSPGQSVTISCTGSSSDVGRSNFVSWYQQYPGKAPKLMIFDVNKRPSGVPDRFSGSKSGNTASLTISGLQADDEAEYYCSSYAGTWIFGGGTQLTVL
notes: Fully human IgG; also called Wlr1B6
B10: WI1A5 (antibody, V domains shown)
VH: QVQLVQSGREMKKPGASMKVSCKASGYTFTKYGISWVRQAPGQGLEWMGWISADNGKTHYAQKLQGRVTMTTDTSTSTAYLELRRLRSDDTAVYFCANDGGYWGQGTLVTVSS
VL: QSVLTQPPSVSGAPGQRVTISCTGTSSNLGAGFPVYWYQQLPGKPPKVLIDGNNDRPSGVPDRVSGSKSDTSASLAITGLQAEDEADYYCLSYDSGLDGWVFGGGTKLTVL
notes: Fully human IgG; also called Wl1A5
B11: WIr1B11 (antibody, V domains shown)
VH: EVQLVQSGAEVKKPGASVKVSCKASGYTFTSYDINWVRQATGQGPEWLGWLNPGSGKTGNAQNFQGRVFMTWDTSKDTAYMEMSSLRSDDTAVYYCARNLDYWGQGTLVTVSS
VL: DIVMTQTPSSLSASVGDRVTITCRASQSISSYLNWYQQKPGKAPKLLIYAASSLQSGVPSRFSGSRSGTDFTLTITNVQPEDFATYYCLQAYDFPITFGQGTKVEIK
notes: Fully human IgG; also called Wlr1B11
B12: WIr2B11 (antibody, V domains shown)
VH: B11 VH
VL: AIQLTQSPSTLSASVGDRVTITCRASQSISSWLAWYQQKPGKAPKLLIYATSRLQSGVPSRFSGSGSGTDFTLTINSLQPEDFATYYCQQYKSYPVTFGPGTKVDIK
notes: Fully human IgG; also called Wlr2B11
B13: WIr1G10 (antibody, V domains shown)
VH: QVQLQQSGPGLVKPSQTLSLTCAISGDTVSSNSAAWNWIRQSPSRGLEWLGGTYYRSKWYNDYAVSVKSRITINPDTSKNQFSLQLNSVTPEDTAVYYCTRSAPAAFDYWGQGTLVTVSS
VL: QSVVTQPPSVSAAPGQKVTISCSGSTSNIGNNYVSWYQQLPGTAPKLLIYDNNKRPSGIPDRFSGSKSGTSATLGITGLQTGDEADYYCGTSDTSLSIYVFGTGTKVTVL
notes: Fully human IgG; also called Wlr1G10
B14: WIr2B12 (antibody, V domains shown)
VH: EVQLVQSGAEVKKPGASVKVSCKASGYTFTSYYMHWVRQAPGQGLEWMGIINPSGGSTSYAQKFQGRVTMTRDTSTSTAYMELSSLRSEDTAVYYCARDIDDYGDGVWGQGTMVTVSS
VL: B13 VL with V4L, T26S, G30A, K54E, S92W, T94G, I98A, Y99G, T103G, V107L
notes: Fully human IgG; also called Wlr2B12
B15: WIr1E2 (antibody, V domains shown)
VH: QMQLVQSGAEVKEPGSSVKVSCKASGDNSYPLNWVRQAPGQGLEWMGGIIPIFGTPNYAQKFEGRVTITADESTNTAYMEISSLRFEDTAMYYCAREGDGYNYSPLDYWGQGTLVTVSS
VL: QAVLTQPPSVSKGLRQTATLTCTGDSSNVGNQGAAWLQQHPGLPPKVLSYRNNSRPSGISERLFVSRSGNSASLTITGLQPEDEADYYCSAWDSSLGAWVFGGGTQLTVL
notes: Fully human IgG; also called Wlr1E2
B16: WIr2A6 (antibody, V domains shown)
VH: EVQLVQSGGGLVKPGGSLRLSCEASGFTVSSYYMNWIRQAPGKGLEWISSFTAEGSTYYADSVRGRFSISRDNAKNSLYLEMTRLRADDTAVYYCARDLDRRDWYGGYFDSWGQGTLVTVSS
VL: LPVLTQPPSVSGAPGQRLTISCTGSSSNIGAGYGVHWYQHLPGSAPKLLIYGNSNRPSGVTDRISGSKSGTSASLAITGLQTGDEADYYCAAWDSYLSGYVFGTGTKVTVL
notes: Fully human IgG; also called Wlr2A6
B17: WIr2A9 (antibody, V domains shown)
VH: QVQLVESGAEVKKPGASVKVSCKVSGYTLTELSMHWVRQAPGKGLEWMGGFDPEDGETIYAQKFQGRVTMTEDTSTDTAYMELSSLRSEDTAVYYCATGGSYYYGSGSYGSRPGYFDLWGRGTLVTVSS
VL: QSVLTQPASVSGSPGQSITISCTGTSSDVGSYNLVSWYQQHPGKAPKLMIYEGSKRPSGVPDRFSGSKSGNTASLSISGLQAEDEADYYCSSYTSSSTLVFGGGTKLTVL
notes: Fully human IgG; also called Wlr2A9

molecular target: T1, recombinant mouse WISP1/His (mouse, UniProt O54775 23-367); experiment: ELISA screening
T1 construct: also called murine WISP1; mWISP1; not shown: His tag
T1 sequence (looked up): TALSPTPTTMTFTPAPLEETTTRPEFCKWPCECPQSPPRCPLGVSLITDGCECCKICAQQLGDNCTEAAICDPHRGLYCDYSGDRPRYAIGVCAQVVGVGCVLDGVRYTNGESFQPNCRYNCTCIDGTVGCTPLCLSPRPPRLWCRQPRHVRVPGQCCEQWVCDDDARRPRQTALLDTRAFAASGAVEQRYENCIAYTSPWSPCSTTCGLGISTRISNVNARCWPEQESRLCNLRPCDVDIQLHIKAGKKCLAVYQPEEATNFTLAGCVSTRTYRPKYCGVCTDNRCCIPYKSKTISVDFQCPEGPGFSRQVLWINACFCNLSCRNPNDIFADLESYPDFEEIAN

Binding result, binds:
B1, B2, B3, B4, B5, B6, B7, B8, B9, B10, B11, B12, B13, B14, B15, B16, B17

molecular target: T2, recombinant human WISP1/His (human, UniProt O95388 23-367); experiment: ELISA screening
T2 construct: also called hWISP1; recombinant human WISP1 protein; not shown: His tag
T2 sequence (looked up): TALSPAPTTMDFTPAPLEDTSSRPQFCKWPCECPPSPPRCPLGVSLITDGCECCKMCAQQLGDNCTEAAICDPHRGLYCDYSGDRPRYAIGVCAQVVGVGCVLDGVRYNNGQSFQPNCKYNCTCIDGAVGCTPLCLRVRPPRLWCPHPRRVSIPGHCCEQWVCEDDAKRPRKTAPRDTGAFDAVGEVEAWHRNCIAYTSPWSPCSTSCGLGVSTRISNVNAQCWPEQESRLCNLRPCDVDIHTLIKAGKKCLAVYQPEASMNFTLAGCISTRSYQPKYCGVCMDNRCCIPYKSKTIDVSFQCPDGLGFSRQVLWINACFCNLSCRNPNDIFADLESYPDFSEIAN

Binding result, binds:
B1, B2, B3, B4, B5, B6, B7, B8, B9, B10, B11, B12, B13, B14, B15, B16, B17
